The results in this text go back to publication PMC4790447.

To fix the notation:
B1: wild-type human ventricular regulatory light chain, dephosphorylated (mock phosphorylation reaction) (natural protein)
chain: MAPKKAKKRAGGANSNVFSMFEQTQIQEFKEAFTIMDQNRDGFIDKNDLRDTFAALGRVNVKNEEIDEMIKEAPGPINFTVFLTMFGEKLKGADPEETILNAFKVFDPEGKGVLKADYVREMLTTQAERFSKEEVDQMFAAFPPDVTGNLDYKNLVHIITHGEEKD
B2: N47K human ventricular regulatory light chain, dephosphorylated (mock phosphorylation reaction) (natural protein)
chain: MAPKKAKKRAGGANSNVFSMFEQTQIQEFKEAFTIMDQNRDGFIDKKDLRDTFAALGRVNVKNEEIDEMIKEAPGPINFTVFLTMFGEKLKGADPEETILNAFKVFDPEGKGVLKADYVREMLTTQAERFSKEEVDQMFAAFPPDVTGNLDYKNLVHIITHGEEKD
B3: R58Q human ventricular regulatory light chain, dephosphorylated (mock phosphorylation reaction) (natural protein)
chain: MAPKKAKKRAGGANSNVFSMFEQTQIQEFKEAFTIMDQNRDGFIDKNDLRDTFAALGQVNVKNEEIDEMIKEAPGPINFTVFLTMFGEKLKGADPEETILNAFKVFDPEGKGVLKADYVREMLTTQAERFSKEEVDQMFAAFPPDVTGNLDYKNLVHIITHGEEKD
B4: N47K human ventricular regulatory light chain, phosphorylated by MLCK (natural protein)
chain: MAPKKAKKRAGGANSNVFSMFEQTQIQEFKEAFTIMDQNRDGFIDKKDLRDTFAALGRVNVKNEEIDEMIKEAPGPINFTVFLTMFGEKLKGADPEETILNAFKVFDPEGKGVLKADYVREMLTTQAERFSKEEVDQMFAAFPPDVTGNLDYKNLVHIITHGEEKD
modifications: phosphoserine at 15 (98.4 ± 1.6% phosphorylated)
B5: R58Q human ventricular regulatory light chain, phosphorylated by MLCK (natural protein)
chain: MAPKKAKKRAGGANSNVFSMFEQTQIQEFKEAFTIMDQNRDGFIDKNDLRDTFAALGQVNVKNEEIDEMIKEAPGPINFTVFLTMFGEKLKGADPEETILNAFKVFDPEGKGVLKADYVREMLTTQAERFSKEEVDQMFAAFPPDVTGNLDYKNLVHIITHGEEKD
modifications: phosphoserine at 15 (87.4 ± 0.8% phosphorylated; full phosphorylation never accomplished)
B6: wild-type human ventricular regulatory light chain, phosphorylated by MLCK (natural protein)
chain: MAPKKAKKRAGGANSNVFSMFEQTQIQEFKEAFTIMDQNRDGFIDKNDLRDTFAALGRVNVKNEEIDEMIKEAPGPINFTVFLTMFGEKLKGADPEETILNAFKVFDPEGKGVLKADYVREMLTTQAERFSKEEVDQMFAAFPPDVTGNLDYKNLVHIITHGEEKD
modifications: phosphoserine at 15 (95.7 ± 3.6% phosphorylated)

This assay has as its target RLC-depleted porcine cardiac β-myosin (porcine) (UniProt P79293). Nature of the assay: co-sedimentation.
In turn, B1 displayed a percent reconstitution (densitometry) of 108%.

In turn, B2 showed a percent reconstitution (densitometry) of 106%.

In turn, B3 came in with a percent reconstitution (densitometry) of 97.8%.

On to B4, for which the percent reconstitution (densitometry) was determined as 96.2%.

As for B5, the percent reconstitution (densitometry) is 107%.

In the case of B6, the percent reconstitution (densitometry) was 109%.
